The nature of data set [1]: melting temperature (DSF); higher = more thermostable. A digest of the protocol: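 Values are melting temperatures from differential scanning fluorimetry. Candidate enzymes were expressed in E. coli C41(DE3), purified on nickel beads and freed by SUMO protease cleavage. In sealed PCR plates on a Bio-Rad CFX96, 45 μL enzyme (0 to 0.3 mg/mL) was combined with 5 μL 5X Sypro Orange. Fluorescence was recorded from 25 °C for 250 cycles, rising 0.3 °C per cycle at a ramp of 0.3 °C/s.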

A short description of data set [2]: PET hydrolysis, aromatic products released after 48 h (umol product/mg enzyme); higher = more PET depolymerization activity. A digest of the protocol:
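Reactions ran in sealed plates without shaking for 48 h at 40 or 60 °C. Each held 3.5 mg amorphous PET film or crystalline PET powder, 450 μL buffer and 5 μg (50 μL) of tagless, SUMO-cleaved, nickel-purified candidate enzyme. Buffers were 50 mM NaCitrate at pH 4.5 or 5.5, 50 mM NaPhosphate at pH 6.5 or 7.5, and glycine at pH 8.5. The supernatant's aromatic product, read at 260 and 280 nm against buffer blanks, gives PET hydrolysis activity per mg enzyme.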

Data set [3] in a line: purified protein yield per well (BCA); higher = higher soluble expression. The procedure, abridged:
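Candidate enzymes were expressed in E. coli C41(DE3) in 2 mL autoinduction cultures with 100 µg/mL kanamycin, at 37 °C for 2 h and then 18 °C for 40 h. Cells were lysed, and protein was bound to Ni-charged magnetic beads and released by SUMO protease cleavage on an OT-2 robot. The read-out is purified protein yield per well, measured with the Pierce Rapid Gold BCA kit. Values below 25 ug (0.1 mg/mL) are below the detection threshold.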

[4] abbreviates: substrate: cryPow, 40 °C, pH 4.5.
[5] abbreviates: substrate: cryPow, 40 °C, pH 5.5.
Where [6] appears, read: substrate: cryPow, 40 °C, pH 6.5.
[7] abbreviates: substrate: cryPow, 40 °C, pH 7.5.
The mark [8] stands for this setting: substrate: cryPow, 40 °C, pH 8.5.
[9] abbreviates: substrate: aFilm, 40 °C, pH 5.5.
[10] abbreviates: substrate: aFilm, 40 °C, pH 6.5.
Where [11] appears, read: substrate: aFilm, 40 °C, pH 7.5.
[12] abbreviates: substrate: aFilm, 60 °C, pH 5.5.
The mark [13] stands for this setting: substrate: aFilm, 60 °C, pH 6.5.
Where [14] appears, read: substrate: aFilm, 60 °C, pH 7.5.
[15] abbreviates: substrate: cryPow, 60 °C, pH 4.5.
[16] abbreviates: substrate: cryPow, 60 °C, pH 5.5.
Where [17] appears, read: substrate: cryPow, 60 °C, pH 6.5.
Where [18] appears, read: substrate: cryPow, 60 °C, pH 7.5.

± gives the standard deviation of the averaged measurements.

With “ADNPYQRGPDPTPQSISATTGPFATASVTVPRQGNFGGGVIYYPTDTSQGTFGAVAISPGLNGTWPGIAWLGPRLSSQGFVVFGIDTLGLNDSTASRGSQLLAALDYLTQTSSVRTRVDASRLAVAGHSMGGGGAFEAVLRRPTLKASIPNAPFFPGSAANVRVPTLITAMQNDSLVGQNRNAYNGIPAGVEKAYIELAGAGHNQIGQPTTAIARNWIPWLKIFVDNDARYHQFFCPTTNMSGLSQYLNTCPLTSATPPTSSPSAGPTTPGPTGPPPGGACAATYQTVNTWSGGYQGEMTVRAGNSAINGWTVRWTMGGGQISQVWNGTLVTGSGAAAVRNAPYNGALAAGATTTFGFISSGTPSATSLTCATP [ESM064]”, the melting temperature in data set [1] is 63.1 C. Besides, the PET hydrolysis is < 3 in data set [2] (setting [4]), 11 in data set [2] (setting [5]), 10 in data set [2] (setting [6]) and 74 in data set [2] (setting [7]). Also, in data set [3], the “purified protein yield per well” value worked out at 164 µg.
The sequence “AQTSQVVTANPHQRGPDPTPETVRAPQGTFAFSTYSVPASVTGFGQGTIYYPDDTTQGTFAGVAISPGYTGPEASVAWLGPRLASRGFVVITITTNSRYDQPTSRGKQLLAALDYLTKQSPTEVRQRLDATRLGVMGHSMGGGGALYAAYKRPSLKAAVPLAPWNLIKNWSGIRVPTLVVAGTADKTASAGAHSLPFYSSMTGARERAFADVTGADHLTFVREDPVIGALAVSWLKRFLDDDTRYAPFITEPVGLSRFLCSCPYAG [DP007]” returned a melting temperature in data set [1] of 51.7 C. Besides, the PET hydrolysis is < 3 in data set [2] (setting [5]), 8 in data set [2] (setting [6]), 16 in data set [2] (setting [7]) and 16 in data set [2] (setting [8]). The “purified protein yield per well” value in data set [3] turned out to be 46 µg.
As to “AGNPYQRGPDPTLASVAASRGTFATAQVSVPAGNGFNGGTIYYPTDSSQGTWGAVAIVPGYTALFANEEAWMGPWLASFGFVVIGIETNSRTDFDTARGTQLLAALDYLTQKSPVRDRVDSARLGVIGHSMGGGGVVYATEHRPSLKAAVALAPFSPSQDMSTDHVPTMVMGGQNDTVVTPSYLDGLYATMPASTQSDFVQLAGADHVAYTHPNTTEMRLLIPWLKIFLDDDTRYTQFLCPLMDSTGVSAYHSKCPYVPPGGSTSTPTPTPTITPTPPPSGACSATYRTVNSWSGGYQGEVTVTAGDAAINGWTVRWNLGGGQTVTQVWNGTLSTSGSTATVTNASYNGSLQASASTTFGFLANGTPSTPAITCTSP [TEP114]”, in data set [1], the melting temperature stood at 41.8 C. The PET hydrolysis in data set [2] (substrate: aFilm, 40 °C, pH 4.5) was < 3; in data set [2] (setting [9]), < 3; in data set [2] (setting [10]), < 3; in data set [2] (setting [11]), < 3; in data set [2] (substrate: aFilm, 60 °C, pH 4.5) it was < 3; in data set [2] (setting [12]), < 3. The PET hydrolysis in data set [2] (setting [13]) is < 3; in data set [2] (setting [14]), < 3; in data set [2] (setting [4]), 7; in data set [2] (setting [5]), 12.5 ± 0.71; in data set [2] (setting [6]), 24.5 ± 3.5; in data set [2] (setting [7]) it was < 3. Further, the PET hydrolysis is 6 ± 1.4 in data set [2] (setting [15]), 9 ± 1.4 in data set [2] (setting [16]), 1.5 ± 2.1 in data set [2] (setting [17]) and < 3 in data set [2] (setting [18]). The “purified protein yield per well” value in data set [3] was found to be 407 µg.
Consider “ADNPFQRGPNPTVASVAATRGTFATAQTSVPAGNGFGGGVIYYPTDTSQGTFGGVAIVPGYSALFANEEAWMGPWLASFGFVVIGIETNSRTDSADARGTQLLAALDYLTQRSSVRDRVDPNRLSVVGHSAGGAGVLSALLRRPSLKAGVGLAPGSPVGNYDLYNDRVPTMFISGQRDTTVTQSYLNGLYSTLPATTPSAWVEITGVDHLFATRANTTEMRVLIPWLKIWVDNDTRYTQFLCPLADSSNISMYRNKCPYVPPGGSSPSPSASPSSSPSPSPSSSPSPSPSPSPSPSPSPSPSPTTSPSPPPPGACSAAYRTVNSWPGGYQGEVTVTAGGSAVNGWTVRWTLGSGQTITQLWNGTLSTSGSAVTVKNASFNGSIPASGSATFGFLATGTPSAPSLSCTSP [ESM007]”, for which the melting temperature in data set [1] amounted to 59.2 C. In addition, the PET hydrolysis in data set [2] (setting [4]), in data set [2] (setting [5]), in data set [2] (setting [6]), in data set [2] (setting [7]), in data set [2] (setting [15]) and in data set [2] (setting [16]) was < 3 each time. Further, the PET hydrolysis in data set [2] (setting [17]) and in data set [2] (setting [18]) was < 3 in each case. In addition, in data set [3], the “purified protein yield per well” value was 424 µg.
In the case of “ADNPYQRGPAPTNTSIEATRGTYAVSTKTISALSARGFGGGTIYYPTSTADGTFGVVAISPGYTASQSTIAWLGPRLASFGFVVVTIDTTTRYDQPTSRGSQLLAALDQAIGDSTVGPRIDATRQAVVGHSMGGGGTLEAAKTRRSLEAAVPLTGWNLDKTWPEVEAATLVIGAQNDTVAPTTSHSIPFYNSLSGAERKAYLELRGASHFAPVTSNTTIAKHTLSWLKRYVDDDTRYEQFISPGPSTAIGSPVSDYRVN [DP022]”, the melting temperature in data set [1] came to 35.8 C. The PET hydrolysis in data set [2] (setting [9]) was < 3; in data set [2] (setting [10]), < 3; in data set [2] (setting [11]), < 3; in data set [2] (substrate: aFilm, 40 °C, pH 8.5), < 3; in data set [2] (setting [12]), < 3; in data set [2] (setting [13]), < 3. The PET hydrolysis in data set [2] (setting [14]) is < 3; in data set [2] (substrate: aFilm, 60 °C, pH 8.5) it was < 3; in data set [2] (setting [5]) it was < 3; in data set [2] (setting [6]), < 3; in data set [2] (setting [7]) it was < 3; in data set [2] (setting [8]), < 3. For the same sequence, the PET hydrolysis in data set [2] (setting [16]) was < 3; in data set [2] (setting [17]), < 3; in data set [2] (setting [18]) it was < 3; in data set [2] (substrate: cryPow, 60 °C, pH 8.5) it was < 3. For the same sequence, in data set [3], the “purified protein yield per well” value came to 215 µg.
The sequence “QDNSQGRYRPEGRQIGVAAGREFGERIYEVRTYETNPGIAEFADVMVFYPLTLSFDRPNGAIAFSPGFRAAADNYEWWGPALASLGYNVFILNTNEPTDDLDARADALAALVDFIKAENANPDSPVANKIDEEKIALMGHSMGGGAALAAADRLGDAVGAVIPLALYCCNPGGSFEGDYGSLSAAALVIASAEDTVAPPEAHARLLYDSLGSENKIYMEFAAGDHMFPANGGPELATMGRFTLAFLKAYLDGVAGLEQHVTSPSDEYAERFSTYLAP [TEP035]” displayed a melting temperature in data set [1] of 52.3 C. Besides, the PET hydrolysis in data set [2] (setting [4]), in data set [2] (setting [5]), in data set [2] (setting [6]) and in data set [2] (setting [7]) was < 3 throughout. In data set [3], the “purified protein yield per well” value came to 51.6 µg.

The record behind these values is the supplement of paper PMC12455559.
